Results from the supplement of paper PMC10065799, “High-throughput profiling of sequence recognition by tyrosine kinases and SH2 domains using bacterial peptide display” (eLife, 2023).

Key:
FGFR1 = FGFR1 (UniProt P11362); assay: phosphorylation enrichment, bacterial display (enrichment ratio); higher = better substrate or ligand; peptides without Tyr show the background
Fer (mouse) = assay: as above
Fyn = Fyn (UniProt P06241); assay: as above
AncSZ = assay: as above
c-Src = assay: as above
EPHB1 = EPHB1 (UniProt P54762); assay: as above
MERTK = MERTK (UniProt Q12866); assay: as above
Jak2 = Jak2 (UniProt O60674); assay: as above
Hck = Hck (UniProt P08631); assay: as above
c-Abl (mouse) = assay: as above
Fes = Fes (UniProt P07332); assay: as above
EPHB2 = EPHB2 (UniProt P29323); assay: as above
FGFR3 = FGFR3 (UniProt P22607); assay: as above
Grb2 SH2 = Grb2 SH2 (UniProt P62993); assay: SH2 binding enrichment of the phosphorylated peptide, bacterial display (enrichment ratio); higher = better substrate or ligand; peptides without Tyr show the background
c-Src SH2 = assay: as above
SHP2-C SH2 = assay: as above
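Wherever SH2 binding enrichment of the phosphorylated peptide, bacterial display is given: peptide library displayed on the E. coli surface as eCPX fusions, selected cells deep-sequenced, score is each peptide's frequency after selection divided by its frequency in the input.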
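Wherever phosphorylation enrichment, bacterial display is given: 11-residue human phosphosite peptides and single-mutation variants displayed on the E. coli surface, counted by deep sequencing, each peptide's frequency after selection divided by its frequency in the unselected input library; frequency after pTyr selection over input frequency; kinase dosed for 20-30% of maximal phosphorylation in three min.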

Hck, sequence (P08631 whole entry, looked up): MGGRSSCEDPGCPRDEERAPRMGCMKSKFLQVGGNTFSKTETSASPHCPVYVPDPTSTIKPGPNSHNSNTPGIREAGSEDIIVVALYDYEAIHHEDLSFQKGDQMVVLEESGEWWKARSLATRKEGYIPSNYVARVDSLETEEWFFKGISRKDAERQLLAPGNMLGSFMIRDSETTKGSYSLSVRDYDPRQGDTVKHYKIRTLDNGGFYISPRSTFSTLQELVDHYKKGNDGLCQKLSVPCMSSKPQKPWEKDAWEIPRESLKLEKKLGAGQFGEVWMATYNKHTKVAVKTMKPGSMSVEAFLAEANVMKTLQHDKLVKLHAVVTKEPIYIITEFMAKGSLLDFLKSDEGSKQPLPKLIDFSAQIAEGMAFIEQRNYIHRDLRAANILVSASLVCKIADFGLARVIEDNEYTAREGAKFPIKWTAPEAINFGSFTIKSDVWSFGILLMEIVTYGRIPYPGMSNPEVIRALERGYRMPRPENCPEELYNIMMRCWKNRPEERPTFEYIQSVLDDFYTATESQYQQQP
Fes, sequence (P07332 whole entry, looked up): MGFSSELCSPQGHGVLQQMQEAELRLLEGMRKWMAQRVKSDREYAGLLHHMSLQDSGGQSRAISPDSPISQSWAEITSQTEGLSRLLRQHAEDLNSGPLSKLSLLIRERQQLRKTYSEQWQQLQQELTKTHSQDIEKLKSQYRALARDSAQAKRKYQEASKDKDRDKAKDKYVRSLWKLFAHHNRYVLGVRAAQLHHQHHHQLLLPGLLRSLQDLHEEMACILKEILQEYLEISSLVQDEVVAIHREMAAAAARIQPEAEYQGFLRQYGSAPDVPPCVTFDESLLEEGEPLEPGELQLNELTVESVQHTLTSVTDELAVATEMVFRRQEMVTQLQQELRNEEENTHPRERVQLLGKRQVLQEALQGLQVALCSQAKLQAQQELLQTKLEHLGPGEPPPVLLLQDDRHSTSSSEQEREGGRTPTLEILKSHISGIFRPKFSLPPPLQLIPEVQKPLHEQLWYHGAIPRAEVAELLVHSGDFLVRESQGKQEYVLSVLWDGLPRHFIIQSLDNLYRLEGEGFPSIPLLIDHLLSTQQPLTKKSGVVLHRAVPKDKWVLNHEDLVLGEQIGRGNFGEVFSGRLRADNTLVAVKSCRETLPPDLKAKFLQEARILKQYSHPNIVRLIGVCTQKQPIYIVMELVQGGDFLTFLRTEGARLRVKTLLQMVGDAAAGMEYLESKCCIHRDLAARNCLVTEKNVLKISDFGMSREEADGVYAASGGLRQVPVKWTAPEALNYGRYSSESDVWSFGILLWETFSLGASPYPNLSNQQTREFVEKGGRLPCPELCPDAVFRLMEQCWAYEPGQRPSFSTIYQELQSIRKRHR
FGFR1, sequence (P11362 whole entry, looked up): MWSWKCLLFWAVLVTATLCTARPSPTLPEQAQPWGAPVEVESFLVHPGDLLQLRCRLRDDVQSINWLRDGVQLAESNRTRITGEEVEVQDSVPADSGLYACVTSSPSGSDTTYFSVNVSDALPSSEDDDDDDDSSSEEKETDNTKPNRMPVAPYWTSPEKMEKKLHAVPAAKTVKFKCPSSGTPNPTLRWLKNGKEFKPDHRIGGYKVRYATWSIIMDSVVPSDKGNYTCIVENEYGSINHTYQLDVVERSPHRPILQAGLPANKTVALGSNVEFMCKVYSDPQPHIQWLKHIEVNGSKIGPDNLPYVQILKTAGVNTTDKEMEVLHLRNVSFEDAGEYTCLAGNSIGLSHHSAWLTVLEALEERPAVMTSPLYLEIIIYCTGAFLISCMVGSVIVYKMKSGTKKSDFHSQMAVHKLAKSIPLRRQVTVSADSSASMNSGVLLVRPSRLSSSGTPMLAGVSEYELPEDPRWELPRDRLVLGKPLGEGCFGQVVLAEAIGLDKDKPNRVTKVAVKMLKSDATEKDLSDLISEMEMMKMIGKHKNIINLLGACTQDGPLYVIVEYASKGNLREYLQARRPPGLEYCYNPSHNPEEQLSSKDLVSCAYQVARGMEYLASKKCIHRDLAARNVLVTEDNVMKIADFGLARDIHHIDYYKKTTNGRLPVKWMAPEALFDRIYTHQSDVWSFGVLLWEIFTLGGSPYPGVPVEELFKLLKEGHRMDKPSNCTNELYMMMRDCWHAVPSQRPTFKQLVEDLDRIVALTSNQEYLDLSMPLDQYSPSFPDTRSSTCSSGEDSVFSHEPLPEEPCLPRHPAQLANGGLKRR
Grb2 SH2, sequence (P62993 whole entry, looked up): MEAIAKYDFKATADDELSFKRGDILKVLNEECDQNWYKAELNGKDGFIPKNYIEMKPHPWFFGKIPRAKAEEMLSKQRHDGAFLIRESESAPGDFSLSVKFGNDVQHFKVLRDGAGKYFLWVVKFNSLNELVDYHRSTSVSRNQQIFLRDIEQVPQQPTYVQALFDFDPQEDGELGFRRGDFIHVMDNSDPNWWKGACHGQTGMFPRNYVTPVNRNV
EPHB2, sequence (P29323 whole entry, looked up): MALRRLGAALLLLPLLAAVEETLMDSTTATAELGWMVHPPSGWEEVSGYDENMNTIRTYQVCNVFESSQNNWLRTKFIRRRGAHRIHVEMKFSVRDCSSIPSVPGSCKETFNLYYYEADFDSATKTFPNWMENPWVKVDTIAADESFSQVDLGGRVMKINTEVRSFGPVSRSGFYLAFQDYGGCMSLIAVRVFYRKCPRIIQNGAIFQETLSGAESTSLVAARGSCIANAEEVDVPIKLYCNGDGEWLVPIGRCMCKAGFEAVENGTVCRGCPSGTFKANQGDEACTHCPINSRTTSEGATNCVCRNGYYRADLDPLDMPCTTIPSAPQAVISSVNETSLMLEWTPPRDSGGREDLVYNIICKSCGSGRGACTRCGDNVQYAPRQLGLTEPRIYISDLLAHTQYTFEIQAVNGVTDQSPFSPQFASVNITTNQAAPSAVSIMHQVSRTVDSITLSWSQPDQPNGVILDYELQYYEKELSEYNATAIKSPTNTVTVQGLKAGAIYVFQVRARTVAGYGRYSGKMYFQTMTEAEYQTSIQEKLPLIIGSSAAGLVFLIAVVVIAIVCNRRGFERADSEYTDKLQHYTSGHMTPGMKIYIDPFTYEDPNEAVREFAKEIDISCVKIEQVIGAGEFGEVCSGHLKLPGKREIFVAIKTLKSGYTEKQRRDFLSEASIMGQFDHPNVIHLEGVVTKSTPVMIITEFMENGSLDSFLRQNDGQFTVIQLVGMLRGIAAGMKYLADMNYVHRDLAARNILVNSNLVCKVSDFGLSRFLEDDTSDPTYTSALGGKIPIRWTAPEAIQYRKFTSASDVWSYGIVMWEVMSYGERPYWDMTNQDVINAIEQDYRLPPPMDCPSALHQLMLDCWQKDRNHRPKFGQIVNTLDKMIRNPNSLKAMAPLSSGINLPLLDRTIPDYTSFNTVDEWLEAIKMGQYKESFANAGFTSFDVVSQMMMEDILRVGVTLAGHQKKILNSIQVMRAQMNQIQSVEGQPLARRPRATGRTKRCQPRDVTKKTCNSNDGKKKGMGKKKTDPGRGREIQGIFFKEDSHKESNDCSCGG
MERTK, sequence (Q12866 whole entry, looked up): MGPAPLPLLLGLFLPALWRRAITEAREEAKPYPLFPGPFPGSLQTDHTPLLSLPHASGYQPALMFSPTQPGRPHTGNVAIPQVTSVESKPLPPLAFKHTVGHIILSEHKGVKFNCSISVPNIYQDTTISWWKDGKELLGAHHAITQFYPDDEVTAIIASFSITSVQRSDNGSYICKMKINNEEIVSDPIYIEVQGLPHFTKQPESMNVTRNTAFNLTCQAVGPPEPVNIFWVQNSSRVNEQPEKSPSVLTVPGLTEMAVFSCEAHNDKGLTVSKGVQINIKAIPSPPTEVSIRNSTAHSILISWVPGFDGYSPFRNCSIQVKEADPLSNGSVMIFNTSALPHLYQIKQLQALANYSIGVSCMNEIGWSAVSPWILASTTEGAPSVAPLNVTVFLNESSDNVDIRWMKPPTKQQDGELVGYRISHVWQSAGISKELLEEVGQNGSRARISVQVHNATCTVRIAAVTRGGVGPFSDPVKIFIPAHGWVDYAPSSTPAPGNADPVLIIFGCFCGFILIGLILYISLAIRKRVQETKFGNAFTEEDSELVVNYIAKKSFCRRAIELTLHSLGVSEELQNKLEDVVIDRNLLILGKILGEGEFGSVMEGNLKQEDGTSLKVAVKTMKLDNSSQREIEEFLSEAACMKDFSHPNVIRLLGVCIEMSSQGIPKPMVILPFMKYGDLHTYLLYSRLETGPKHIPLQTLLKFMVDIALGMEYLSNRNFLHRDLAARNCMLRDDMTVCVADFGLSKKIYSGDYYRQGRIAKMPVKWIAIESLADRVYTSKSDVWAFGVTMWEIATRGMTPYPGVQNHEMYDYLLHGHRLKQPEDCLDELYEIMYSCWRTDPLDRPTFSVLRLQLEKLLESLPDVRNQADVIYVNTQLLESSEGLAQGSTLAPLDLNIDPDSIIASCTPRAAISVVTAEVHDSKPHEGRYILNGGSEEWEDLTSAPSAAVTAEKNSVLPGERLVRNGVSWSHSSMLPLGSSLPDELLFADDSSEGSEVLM
Fyn, sequence (P06241 whole entry, looked up): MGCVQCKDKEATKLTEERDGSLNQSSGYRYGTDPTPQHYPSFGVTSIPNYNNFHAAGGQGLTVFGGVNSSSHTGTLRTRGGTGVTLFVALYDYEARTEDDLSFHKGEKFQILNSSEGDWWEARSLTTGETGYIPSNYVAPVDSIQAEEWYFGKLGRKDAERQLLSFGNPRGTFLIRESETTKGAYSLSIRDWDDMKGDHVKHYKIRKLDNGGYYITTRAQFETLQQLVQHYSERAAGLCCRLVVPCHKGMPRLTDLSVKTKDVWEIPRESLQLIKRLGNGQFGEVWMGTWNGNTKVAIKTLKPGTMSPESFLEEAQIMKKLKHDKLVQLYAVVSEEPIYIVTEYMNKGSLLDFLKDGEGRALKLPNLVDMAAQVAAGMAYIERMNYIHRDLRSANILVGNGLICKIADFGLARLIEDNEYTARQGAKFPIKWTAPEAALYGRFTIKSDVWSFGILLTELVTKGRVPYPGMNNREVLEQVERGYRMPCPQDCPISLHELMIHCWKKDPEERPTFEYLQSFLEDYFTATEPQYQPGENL

Work on FRSSLYLLMET [MYO5C_Y633] yielded a phosphorylation enrichment (FGFR1) of 0.724, a phosphorylation enrichment (Fer (mouse)) of 0.687 and a phosphorylation enrichment (Fyn) of 0.473. For the same sequence, the phosphorylation enrichment (AncSZ) was 1.24, the phosphorylation enrichment (c-Src) was 0.521 and the phosphorylation enrichment (EPHB1) was 0.804. The phosphorylation enrichment (MERTK) was 1.46, the phosphorylation enrichment (Jak2) was 1.29 and the phosphorylation enrichment (Hck) was 0.576. The phosphorylation enrichment (c-Abl (mouse)) was 0.896, the phosphorylation enrichment (Fes) was 1.37 and the phosphorylation enrichment (EPHB2) was 0.591. The phosphorylation enrichment (FGFR3) was 1.16, the SH2 binding enrichment (Grb2 SH2) was 1.3 and the SH2 binding enrichment (c-Src SH2) was 0.855. It also gave an SH2 binding enrichment (SHP2-C SH2) of 1.16.

FSAPNCCFRCG [PPP2CA_Y265_Y265C_YF] was tested, and the phosphorylation enrichment (FGFR1) was 0.458, the phosphorylation enrichment (Fer (mouse)) was 0.48 and the phosphorylation enrichment (Fyn) was 0.458. The phosphorylation enrichment (AncSZ) was 0.856, the phosphorylation enrichment (c-Src) was 0.448 and the phosphorylation enrichment (EPHB1) was 0.559. For the same sequence, the phosphorylation enrichment (MERTK) was 0.486, the phosphorylation enrichment (Jak2) was 0.833 and the phosphorylation enrichment (Hck) was 0.479. For the same sequence, the phosphorylation enrichment (c-Abl (mouse)) was 0.658, the phosphorylation enrichment (Fes) was 0.974 and the phosphorylation enrichment (EPHB2) was 0.461. The phosphorylation enrichment (FGFR3) was 0.663, the SH2 binding enrichment (Grb2 SH2) was 0.931 and the SH2 binding enrichment (c-Src SH2) was 0.585. It also gave an SH2 binding enrichment (SHP2-C SH2) of 0.751.

In the case of FSAPNYCFRCG [PPP2CA_Y265_YF], the phosphorylation enrichment (FGFR1) is reported as 0.474, the phosphorylation enrichment (Fer (mouse)) is reported as 0.415 and the phosphorylation enrichment (Fyn) is reported as 0.349. It also gave a phosphorylation enrichment (AncSZ) of 0.661, a phosphorylation enrichment (c-Src) of 0.343 and a phosphorylation enrichment (EPHB1) of 0.397. The phosphorylation enrichment (MERTK) was 0.393, the phosphorylation enrichment (Jak2) was 0.511 and the phosphorylation enrichment (Hck) was 0.374. It also gave a phosphorylation enrichment (c-Abl (mouse)) of 0.416, a phosphorylation enrichment (Fes) of 0.674 and a phosphorylation enrichment (EPHB2) of 0.448. The phosphorylation enrichment (FGFR3) was 0.486, the SH2 binding enrichment (Grb2 SH2) was 1.24 and the SH2 binding enrichment (c-Src SH2) was 0.763. For the same sequence, the SH2 binding enrichment (SHP2-C SH2) was 0.702.

Sequence FSMGCYEISLG [HMGCL_Y198_YF] has a phosphorylation enrichment (FGFR1) of 0.652, a phosphorylation enrichment (Fer (mouse)) of 1.68 and a phosphorylation enrichment (Fyn) of 0.993. For the same sequence, the phosphorylation enrichment (AncSZ) was 1.93, the phosphorylation enrichment (c-Src) was 1.64 and the phosphorylation enrichment (EPHB1) was 1.03. The phosphorylation enrichment (MERTK) was 0.866, the phosphorylation enrichment (Jak2) was 1.6 and the phosphorylation enrichment (Hck) was 0.836. It also gave a phosphorylation enrichment (c-Abl (mouse)) of 0.965, a phosphorylation enrichment (Fes) of 1.47 and a phosphorylation enrichment (EPHB2) of 1.01. The phosphorylation enrichment (FGFR3) was 1.05, the SH2 binding enrichment (Grb2 SH2) was 0.641 and the SH2 binding enrichment (c-Src SH2) was 0.505. It also gave an SH2 binding enrichment (SHP2-C SH2) of 0.785.

Sequence FSNVLYRPRGP [TMIGD2_Y197_A202P_YF] has a phosphorylation enrichment (FGFR1) of 0.367, a phosphorylation enrichment (Fer (mouse)) of 0.397 and a phosphorylation enrichment (Fyn) of 0.438. The phosphorylation enrichment (AncSZ) was 0.549, the phosphorylation enrichment (c-Src) was 0.463 and the phosphorylation enrichment (EPHB1) was 0.429. The phosphorylation enrichment (MERTK) was 0.434, the phosphorylation enrichment (Jak2) was 0.959 and the phosphorylation enrichment (Hck) was 0.479. The phosphorylation enrichment (c-Abl (mouse)) was 0.568, the phosphorylation enrichment (Fes) was 0.674 and the phosphorylation enrichment (EPHB2) was 0.399. For the same sequence, the phosphorylation enrichment (FGFR3) was 0.444, the SH2 binding enrichment (Grb2 SH2) was 0.693 and the SH2 binding enrichment (c-Src SH2) was 0.506. The SH2 binding enrichment (SHP2-C SH2) was 0.794.

Work on FTRNFYVQAVL [CYBA_Y88_R90Q_YF] yielded a phosphorylation enrichment (FGFR1) of 0.563, a phosphorylation enrichment (Fer (mouse)) of 0.654 and a phosphorylation enrichment (Fyn) of 0.435. The phosphorylation enrichment (AncSZ) was 0.993, the phosphorylation enrichment (c-Src) was 0.474 and the phosphorylation enrichment (EPHB1) was 0.81. The phosphorylation enrichment (MERTK) was 0.494, the phosphorylation enrichment (Jak2) was 1.15 and the phosphorylation enrichment (Hck) was 0.483. It also gave a phosphorylation enrichment (c-Abl (mouse)) of 0.742, a phosphorylation enrichment (Fes) of 1.31 and a phosphorylation enrichment (EPHB2) of 0.57. It also gave a phosphorylation enrichment (FGFR3) of 0.795, an SH2 binding enrichment (Grb2 SH2) of 0.837 and an SH2 binding enrichment (c-Src SH2) of 0.421. For the same sequence, the SH2 binding enrichment (SHP2-C SH2) was 0.78.

Sequence FVHDNYVIQRT [CPS1_Y1450_R1453Q] has a phosphorylation enrichment (FGFR1) of 0.481, a phosphorylation enrichment (Fer (mouse)) of 0.694 and a phosphorylation enrichment (Fyn) of 0.425. For the same sequence, the phosphorylation enrichment (AncSZ) was 0.788, the phosphorylation enrichment (c-Src) was 0.481 and the phosphorylation enrichment (EPHB1) was 2.19. For the same sequence, the phosphorylation enrichment (MERTK) was 0.469, the phosphorylation enrichment (Jak2) was 0.7 and the phosphorylation enrichment (Hck) was 0.436. The phosphorylation enrichment (c-Abl (mouse)) was 0.52, the phosphorylation enrichment (Fes) was 0.672 and the phosphorylation enrichment (EPHB2) was 1.07. For the same sequence, the phosphorylation enrichment (FGFR3) was 0.567, the SH2 binding enrichment (Grb2 SH2) was 0.971 and the SH2 binding enrichment (c-Src SH2) was 0.624. The SH2 binding enrichment (SHP2-C SH2) was 0.596.

With FVPSNYVAEDR [FRK_Y104_I100V_YF] the phosphorylation enrichment (FGFR1) was 0.447, the phosphorylation enrichment (Fer (mouse)) was 0.409 and the phosphorylation enrichment (Fyn) was 0.439. The phosphorylation enrichment (AncSZ) was 0.782, the phosphorylation enrichment (c-Src) was 0.35 and the phosphorylation enrichment (EPHB1) was 0.527. For the same sequence, the phosphorylation enrichment (MERTK) was 0.38, the phosphorylation enrichment (Jak2) was 0.642 and the phosphorylation enrichment (Hck) was 0.431. The phosphorylation enrichment (c-Abl (mouse)) was 0.625, the phosphorylation enrichment (Fes) was 0.827 and the phosphorylation enrichment (EPHB2) was 0.625. The phosphorylation enrichment (FGFR3) was 0.662, the SH2 binding enrichment (Grb2 SH2) was 0.788 and the SH2 binding enrichment (c-Src SH2) was 0.588. For the same sequence, the SH2 binding enrichment (SHP2-C SH2) was 0.76.

For GCRSKHVGLWG [KCNQ1_Y184_Y184H], the phosphorylation enrichment (FGFR1) was 0.36, the phosphorylation enrichment (Fer (mouse)) was 0.325 and the phosphorylation enrichment (Fyn) was 0.385. The phosphorylation enrichment (AncSZ) was 0.518, the phosphorylation enrichment (c-Src) was 0.359 and the phosphorylation enrichment (EPHB1) was 0.316. For the same sequence, the phosphorylation enrichment (MERTK) was 0.397, the phosphorylation enrichment (Jak2) was 0.409 and the phosphorylation enrichment (Hck) was 0.328. It also gave a phosphorylation enrichment (c-Abl (mouse)) of 0.516, a phosphorylation enrichment (Fes) of 0.481 and a phosphorylation enrichment (EPHB2) of 0.314. For the same sequence, the phosphorylation enrichment (FGFR3) was 0.388, the SH2 binding enrichment (Grb2 SH2) was 1.17 and the SH2 binding enrichment (c-Src SH2) was 0.86. The SH2 binding enrichment (SHP2-C SH2) was 0.906.

In the case of GEDEPYAEPFA [APBA1_Y183_S184A_YF], the phosphorylation enrichment (FGFR1) is reported as 0.607, the phosphorylation enrichment (Fer (mouse)) is reported as 0.569 and the phosphorylation enrichment (Fyn) is reported as 0.462. For the same sequence, the phosphorylation enrichment (AncSZ) was 1.43, the phosphorylation enrichment (c-Src) was 0.649 and the phosphorylation enrichment (EPHB1) was 0.584. It also gave a phosphorylation enrichment (MERTK) of 0.547, a phosphorylation enrichment (Jak2) of 1.47 and a phosphorylation enrichment (Hck) of 0.593. The phosphorylation enrichment (c-Abl (mouse)) was 0.814, the phosphorylation enrichment (Fes) was 1.21 and the phosphorylation enrichment (EPHB2) was 0.571. The phosphorylation enrichment (FGFR3) was 0.872, the SH2 binding enrichment (Grb2 SH2) was 1.08 and the SH2 binding enrichment (c-Src SH2) was 0.636. It also gave an SH2 binding enrichment (SHP2-C SH2) of 0.652.

With GESKDYALHVG [SVIL_Y185] the phosphorylation enrichment (FGFR1) was 0.469, the phosphorylation enrichment (Fer (mouse)) was 0.436 and the phosphorylation enrichment (Fyn) was 0.463. The phosphorylation enrichment (AncSZ) was 0.606, the phosphorylation enrichment (c-Src) was 0.416 and the phosphorylation enrichment (EPHB1) was 1.92. It also gave a phosphorylation enrichment (MERTK) of 0.468, a phosphorylation enrichment (Jak2) of 0.461 and a phosphorylation enrichment (Hck) of 0.461. For the same sequence, the phosphorylation enrichment (c-Abl (mouse)) was 0.502, the phosphorylation enrichment (Fes) was 0.798 and the phosphorylation enrichment (EPHB2) was 0.721. It also gave a phosphorylation enrichment (FGFR3) of 0.532, an SH2 binding enrichment (Grb2 SH2) of 0.815 and an SH2 binding enrichment (c-Src SH2) of 0.452. The SH2 binding enrichment (SHP2-C SH2) was 0.612.

In the case of GFILMYDITNE [RAB3C_Y110], the phosphorylation enrichment (FGFR1) is reported as 0.49, the phosphorylation enrichment (Fer (mouse)) is reported as 0.692 and the phosphorylation enrichment (Fyn) is reported as 0.526. It also gave a phosphorylation enrichment (AncSZ) of 1.33, a phosphorylation enrichment (c-Src) of 0.559 and a phosphorylation enrichment (EPHB1) of 1.06. For the same sequence, the phosphorylation enrichment (MERTK) was 0.678, the phosphorylation enrichment (Jak2) was 1.38 and the phosphorylation enrichment (Hck) was 0.633. For the same sequence, the phosphorylation enrichment (c-Abl (mouse)) was 0.8, the phosphorylation enrichment (Fes) was 1.66 and the phosphorylation enrichment (EPHB2) was 1.6. For the same sequence, the phosphorylation enrichment (FGFR3) was 0.975, the SH2 binding enrichment (Grb2 SH2) was 1.05 and the SH2 binding enrichment (c-Src SH2) was 0.674. The SH2 binding enrichment (SHP2-C SH2) was 0.962.

For GGKFSYLKVGH [GRM3_Y480_YF], the phosphorylation enrichment (FGFR1) was 0.512, the phosphorylation enrichment (Fer (mouse)) was 0.344 and the phosphorylation enrichment (Fyn) was 0.361. The phosphorylation enrichment (AncSZ) was 0.634, the phosphorylation enrichment (c-Src) was 0.411 and the phosphorylation enrichment (EPHB1) was 0.409. The phosphorylation enrichment (MERTK) was 0.463, the phosphorylation enrichment (Jak2) was 0.642 and the phosphorylation enrichment (Hck) was 0.371. It also gave a phosphorylation enrichment (c-Abl (mouse)) of 0.494, a phosphorylation enrichment (Fes) of 0.619 and a phosphorylation enrichment (EPHB2) of 0.368. For the same sequence, the phosphorylation enrichment (FGFR3) was 0.519, the SH2 binding enrichment (Grb2 SH2) was 0.901 and the SH2 binding enrichment (c-Src SH2) was 0.401. The SH2 binding enrichment (SHP2-C SH2) was 0.525.

GGRKGYGGFSR [RECQL5_Y478_D480G] showed a phosphorylation enrichment (FGFR1) of 0.391, a phosphorylation enrichment (Fer (mouse)) of 0.36 and a phosphorylation enrichment (Fyn) of 0.513. For the same sequence, the phosphorylation enrichment (AncSZ) was 0.551, the phosphorylation enrichment (c-Src) was 0.487 and the phosphorylation enrichment (EPHB1) was 0.393. The phosphorylation enrichment (MERTK) was 0.512, the phosphorylation enrichment (Jak2) was 0.51 and the phosphorylation enrichment (Hck) was 0.42. The phosphorylation enrichment (c-Abl (mouse)) was 0.506, the phosphorylation enrichment (Fes) was 0.491 and the phosphorylation enrichment (EPHB2) was 0.396. For the same sequence, the phosphorylation enrichment (FGFR3) was 0.452, the SH2 binding enrichment (Grb2 SH2) was 0.736 and the SH2 binding enrichment (c-Src SH2) was 0.453. It also gave an SH2 binding enrichment (SHP2-C SH2) of 0.571.
